Test results as given in patent US20070275916A1.

Columns and labels:
[1] = target: G-CSFR on mouse bone marrow cells (mouse) (UniProt P40223); assay: radiolabeled G-CSF on bone marrow cells from vavCre+SOCS3-/fl mice, with and without excess unlabeled G-CSF
[2] = target: G-CSFR on mouse bone marrow cells (mouse) (UniProt P40223); assay: radiolabeled G-CSF on bone marrow cells from control vavCre-SOCS3+/fl mice, with and without excess unlabeled G-CSF

Sequence of UniProt P40223 (P40223 26-837): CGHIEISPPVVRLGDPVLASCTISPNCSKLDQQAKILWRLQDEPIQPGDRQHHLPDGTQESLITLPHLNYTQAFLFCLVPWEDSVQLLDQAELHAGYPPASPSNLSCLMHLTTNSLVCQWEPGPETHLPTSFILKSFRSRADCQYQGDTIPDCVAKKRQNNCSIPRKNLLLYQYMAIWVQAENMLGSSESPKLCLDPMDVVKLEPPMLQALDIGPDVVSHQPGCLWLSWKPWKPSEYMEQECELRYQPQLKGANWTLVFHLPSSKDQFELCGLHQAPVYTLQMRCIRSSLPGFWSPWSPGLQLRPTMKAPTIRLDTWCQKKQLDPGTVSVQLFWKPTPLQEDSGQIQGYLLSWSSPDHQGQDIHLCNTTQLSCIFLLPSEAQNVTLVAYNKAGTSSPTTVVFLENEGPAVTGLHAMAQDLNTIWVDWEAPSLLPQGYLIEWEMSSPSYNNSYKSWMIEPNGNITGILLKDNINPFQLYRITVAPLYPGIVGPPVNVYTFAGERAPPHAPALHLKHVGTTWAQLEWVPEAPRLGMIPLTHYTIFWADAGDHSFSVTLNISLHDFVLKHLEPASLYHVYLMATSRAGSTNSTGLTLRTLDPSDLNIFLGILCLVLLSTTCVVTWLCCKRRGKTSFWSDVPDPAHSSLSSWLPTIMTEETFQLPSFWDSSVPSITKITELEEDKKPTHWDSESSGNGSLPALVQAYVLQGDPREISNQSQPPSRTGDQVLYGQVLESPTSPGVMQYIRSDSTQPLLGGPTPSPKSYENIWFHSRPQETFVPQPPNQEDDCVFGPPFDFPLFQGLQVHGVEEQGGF

cpm bound [1]: 1700 cpm
cpm bound [2]: 1880 cpm
Substance: radiolabeled G-CSF (ligand)
